First the molecules themselves.
T1: mCXCL3 displayed on the surface of yeast as N-terminal fusion of Aga2p (mouse, UniProt Q6W5C0 32-100)
T1 chain: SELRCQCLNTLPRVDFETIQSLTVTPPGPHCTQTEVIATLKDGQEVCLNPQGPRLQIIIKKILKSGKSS

T2: mCXCL5 displayed on the surface of yeast as N-terminal fusion of Aga2p (mouse)
T2 chain: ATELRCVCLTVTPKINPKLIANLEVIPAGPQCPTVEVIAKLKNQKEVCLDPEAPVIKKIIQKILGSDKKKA

B1: SA129, mouse serum albumin fused to the CK129 single-chain variable antibody fragment (scFv, V domains shown)
VH: EVQLVESGGGLVQPGGSLRLSCAASGFNISSYGSMHWVRQAPGKGLEWVASIYPYSSSTYYADSVKGRFTISADTSKNTAYLQMNSLRAEDTAVYYCARGYGPWYAYSYFALDYWGQGTLVTVSS
VL: DIQMTQSPSPLSASVGDRVTITCRASQYGGYVAWYQQKPGKAPKLLIYGASLLYSGVPSRFSGGRSGTDFTLTISSLQPEDFATYYCQRGHALITFGQGTKVEIE
B2: mCXCL2 displayed on the surface of yeast as N-terminal fusion of Aga2p (ligand)
chain: AVVASELRCQCLKTLPRVDFKNIQSLSVTPPGPHCAQTEVIATLKGGQKVCLDPEAPLVQKIIQKILNKGKAN
B3: SA138, mouse serum albumin fused to the CK138 single-chain variable antibody fragment (scFv, V domains shown)
VH: EVQLVESDGGLVQPGGSLRLSCAASGFNLSYYGMHWVRQAPGKGLEWVAYIASYPGYTSYADSVKGRFTISADTSKNTAYLQMNSLRAEDTAVYYCARSGYSYSPYYSWFSAGMNYWGQGALVTVSS
VL: AIQMTRSPSSLSASVGDRVTITCRASQYHDGSAAWYQQKPGKAPKLLIYGASYLYSGVPSRFSGSRSGTDFTLTISSLQPEDFATYYCQQSSYSLITFGQGTKVEIK
B4: mCXCL1 displayed on the surface of yeast as N-terminal fusion of Aga2p (ligand)
chain: APIANELRCQCLQTMAGIHLKNIQSLKVLPSGPHCTQTEVIATLKNGREACLDPEAPLVQKIVQKMLKGVPK

Among the targets are hCXCL2; hCXCL3; hCXCL6; hCXCL8; hCXCL5.
Common to all, as to assay: FACS
A general note: In flow cytometry, cells or beads pass a laser one at a time.

Assay [1] has as its target wild-type hCXCL1 displayed on the surface of yeast as N-terminal fusion of Aga2p (human, UniProt P09341 35-107).
Assay [2] deals with B4.
In assay [3] the target is SA157*, separate mouse serum albumin fusions of the VL and VH domains of CK157 mixed in equimolar amounts.
The target in assay [4] is T1, mCXCL3 displayed on the surface of ….
Assay [5] concerns the target B2.
In assay [6] the target is T2, mCXCL5 displayed on the surface of ….

Sequence of wild-type hCXCL1 displayed on the surface of yeast as N-terminal fusion of Aga2p (P09341 35-107): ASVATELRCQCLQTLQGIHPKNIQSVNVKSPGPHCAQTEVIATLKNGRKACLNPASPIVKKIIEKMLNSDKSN

The term Kd denotes the concentration at which binding is half-saturated. For B1, the Kd is 2.7 nM in [1], 2.9 nM in [2], 43.6 nM with hCXCL2 and 9.2 nM in the assay with hCXCL3.
For B2, the Kd in [3] turned out to be 591 nM.
On to B3, for which the Kd came out at 31.1 nM in assay [4]; 16.7 nM in assay [5]; 357 nM in assay [6]; 29.4 nM in assay [2]; 1590 nM in the assay with hCXCL2; 5000 nM with hCXCL6. In addition, the Kd in the assay with hCXCL8 stood at 14.7 nM; in the assay with hCXCL5, 33.7 nM; in the assay with hCXCL3, 836 nM.
Consider B4, for which the dissociation constant (Kd) in assay [3] was 666 nM.
